Data reported in patent US20240181058A1, “[…] ANTIGEN RECEPTOR TARGETING ONCOLYTIC VIRUS-DERIVED PROTEIN, […], AND USES OF BOTH” (priority 2021, published 2024).

Target: protein A56 (Vaccinia virus, UniProt Q01218)

Row | Molecule | Western blot band on denatured protein | Western blotting, binding affinity in a two-dimensional structure using PAGE
1 | Ab16 (protein, amino acid sequence for anti-UTTA scFv (Ab16)) scFv: QVQLQQSGPGLVKPSQTLSLTCAISGDSVSSNSAAWNWIRQSPSRGLEWLGRTYYRSKWYNDYAVSVKSRITINPDTSKNQFSLQLNSVTAVDTAVYYCAKSYAGPISYYYYGLDVWGQGTTVTVSSGLGGLGGGGSGGGGSGGSSGVGSQSALTQPASVSGSPGQSVTISCTGTSSDIGRYNLVSWYQQHPGKAPKLMIYGGSKRPSGVSNRFSGSNSDNTASLTISGLRAEDEADYYCSSYASSSTPYVFGTGTKVTVL | many weak bands with small sizes were observed or no band was observed | linear multiple bands were identified
2 | Ab18 (protein, amino acid sequence for anti-UTTA scFv (Ab18)) scFv: QVQLVESGGGLVQPGKSLRLSCAASGFTFSTYGMTWVRQAPGKGLEWVSGISGGGSSTNYADSVKGRFIISRDNSNNTLYLQMNSLRAEDTAVYYCARWGVMLSFDYWGQGTPVTVSSGLGGLGGGGSGGGGSGGSSGVGSDIQMTQSPSTLPASVGDRVTITCRASYSVSPWLAWYQQKPGKAPKLLIYKASTLESGVPSRFSGSGSGTEFTLTISSLQPDDFATYYCQQFNSYMMYTFGQGTKLEIK | – | linear multiple bands were identified
3 | Ab19 (protein, amino acid sequence for anti-UTTA scFv (Ab19)) scFv: QVQLVESGAEVRRPGSSVKVSCKTSGVTFSGYVLSWVRQAPGHGLEWMGRIIPLIDVENYAREFQGRMKITADKSTNTVYMELNNLRSEDTAVYYCAKSVVRGLDYYYYGFDVWGQGTTVTVSSGLGGLGGGGSGGGGSGGSSGVGSSYELTQPPSLSVAPGKTARITCGGNNIGSKSVHWYQQKPGQAPRLVTYYDGNRPSGIPERFSGSNSGNTATLIISRVEAGDEADYYCQVWDSSSDQGVFGTGTKVTVL | many weak bands with small sizes were observed or no band was observed | a linear single band was identified
4 | Ab13 (protein, amino acid sequence for anti-UTTA scFv (Ab13)) scFv: QMQLVESGAEVKKTGSSVKVSCKASGDTLTYRFLHWVRQAPGQAPEWMGWITPFNDNTNYAQKFQDRVTITRDRSMSTAYMELSSLRSEDTAVYYCATGGGNNYYGMEVWGQGTPITVSSGLGGLGGGGSGGGGSGGSSGVGSSYELTQPLSLSVSPGQTASITCSGDKLGDKFTSWYQQQPGQSPVLVIYQDAKRPSGIPERFSGSNSGSTATLTISGTQSMDEADYYCQAWDSSSVVFGGGTKLTVL | many weak bands with small sizes were observed or no band was observed | binding did not occur
